This passage reports HI activity and Neutralizing activity (%) results from US20160200799A1.

What all share (assay): cell-based or functional assay
Assay [1] has as its target Influenza virus A/Brisbane/59/2007 (H1N1) (Influenza A virus A/Brisbane/59/2007 (H1N1)).
Assay [2] concerns the target Influenza virus A/California/7/2009pdm (H1N1pdm) (Influenza A virus A/California/7/2009pdm (H1N1pdm)).
Assay [3] deals with Influenza virus A/Indonesia/5/2005/PR8-IBCDC-RG2 (H5N1) (Influenza A virus A/Indonesia/5/2005/PR8-IBCDC-RG2 (H5N1)).
Assay [4] addresses Influenza virus A/Panama/2007/1999 (H3N2) (Influenza A virus A/Panama/2007/1999 (H3N2)).
The target in assay [5] is Influenza virus A/Suita/1/2009pdm (H1N1 2009 pandemic) (Influenza A virus A/Suita/1/2009pdm (H1N1pdm)).

B1: Group 37 representative clone F083-311, Fab-PP-type antibody (Fab, V domains shown)
VH: QVQLVQSGSEVKKPGSSVKVSCKASGGIFRTNAISYVRQAPGQGLEWMGGITAIFGTPNYAQKFQGRVTIIADESTSTVYMELGSLTSEDTAVYYCATSGTYYVSYFDSWGQGTLVTVSS
VL: DIVMTQSPGTLTLSPGERATLSCRASQSLYSSHLAWYQQKPGQPPRLLIYGASTRAPGTPDRFSGSGSGTDFTLTITALDPEDSAVYYCQQYGSSPITFGQGTRLEIK
Regarding B1, the HI activity in assay [1] and in assay [2] was over 160 µg/mL throughout. The Neutralizing activity (%) at 100 µg/ml is 100% in assay [1], 90% in assay [3], -8.9% in assay [4] and 93% in assay [5]. Further, the Neutralizing activity (%) at 250 µg/ml in assay [1] was found to be 100%; in assay [3], 97.1%; in assay [4], 5.5%; in assay [5], 100%.

B2: Group 3 representative clone F081-281, Fab-PP-type antibody (Fab, V domains shown)
VH: QVQLVQSGSEVKKPGSSVKVSCSFKASGGIISKYAITWVRQAPGQGLEWMGGIIAIFGSTNYAQKFQGRLTITSDESTSTAYMELSSLTSEDTAVYYCGRGPHYYESHLDYWGQGTLVTVSS
VL: EIVLTQSPGTLSLSPGERATLSCRASQGMSSSFLAWYQQKPGQPPRLLISGASTRATGIPDRFSGSGSGTDFTLTINRLEPEDFAVYYCQQYGSSPRTFGQGTKVEIK
As for B2, the HI activity in assay [1] and in assay [2] was over 160 µg/mL in each case. Besides, the Neutralizing activity (%) at 100 µg/ml in assay [1] was 98%; in assay [3], 81.8%; in assay [4], -11.6%; in assay [5] it was 100%. The Neutralizing activity (%) at 250 µg/ml in assay [1] is 100%; in assay [3] it was 85.9%; in assay [4], -8.9%; in assay [5], 100%.

B3: Group 35 representative clone F082-117, Fab-PP-type antibody (Fab, V domains shown)
VH: QVQLVQSGSEVKKPGSSVKVSCKSSGGILRRSAISWVRQAPGQGLEWMGGILAIFGTTKYAQKFQGRITITADESTNTVHMELSSLRPDDTAVYYCAGGPHYYVSYFDSWGQGTLVTVSS
VL: DIQMTQSPATLSLSPGERATLSCRASQSVRSYLAWYQQKPGQAPRLLIYDASNRATGIPARFSGSGSGTEFTLTISRLEPEDFAVYYCQQRSNWLFTFGPGTKVDFK
Take B3: the HI activity in assay [1] and in assay [2] was over 160 µg/mL in each case. The Neutralizing activity (%) at 100 µg/ml in assay [1] amounted to 100%; in assay [3], 94.1%; in assay [4], 3.4%; in assay [5], 100%. In addition, the Neutralizing activity (%) at 250 µg/ml is 100% in assay [1], 95.9% in assay [3], -4.8% in assay [4] and 100% in assay [5].

B4: Group 1 representative clone F080-227, Fab-PP-type antibody (Fab, V domains shown)
VH: QVQLQESGAEVKKPGSSVKVSCKASGGIFRRNAISWVRQAPGQGLEWMGGIIAIFGTANYAQKFQGRVTITADESTSTVYMELSSLRPEDTAVYYCARGPNYYENFFDYWGQGTLVTVSS
VL: DIVMTQSPSSLSASVGDRLDLTCRASQDIANSLAWYKQRPGKAPELLVFGASRLEGGVPSRFSGTRAGTDFTLTISSLQPEDLGTYFCQQYFSFPRTFGQGTTLDLR
As for B4, the HI activity in assay [1] and in assay [2] was over 160 µg/mL in each case. Also, the Neutralizing activity (%) at 100 µg/ml in assay [1] is 96%; in assay [3] it was 67.6%; in assay [4] it was -0.7%; in assay [5], 100%. For the same molecule, the Neutralizing activity (%) at 250 µg/ml was 98% in assay [1], 52.9% in assay [3], -0.7% in assay [4] and 100% in assay [5].

B5: Group 42 representative clone F083-249, Fab-PP-type antibody (Fab, V domains shown)
VH: QVQLVQSGSEVKKPGSSVKVSCKASGVTFSSYAISWVRQAPGQGLEWMGGISPMFGTTRYAQKFQGRVTITADESTRTGFMELSSLRSGDTAVYYCARSPTYYPGALDMWGQGTTVTVSS
VL: DVVMTQSPSLLSASVGDRVTITCRASQAIANFVSWFQQKPGEAPKSLIHAASTLQGGVPPRFSGSGYGAVFTLTITNLQPEDFATYFCQQYNSLPFTFGPGTDVEVR
In the case of B5, the HI activity in assay [1] and in assay [2] was over 160 µg/mL throughout. The Neutralizing activity (%) at 100 µg/ml in assay [1] worked out at 100%; in assay [3] it was 96.5%; in assay [4], 15.8%; in assay [5] it was 100%. Also, the Neutralizing activity (%) at 250 µg/ml in assay [1] is 100%; in assay [3], 98.2%; in assay [4] it was 34.2%; in assay [5], 97.7%.

B6: Group 48 representative clone F083-389, Fab-PP-type antibody (Fab, V domains shown)
VH: QVQLVQSGAEVKKPGSSVKVSCKASGDIFNKFAITWVRQAPGQGLEWMGGITALFATTSYAQKFQDRVTINWDESTTTAFMELSSLRFEDTAVYYCARGPNYYETYLDNWGQGTLVTVSS
VL: EIVLTQSPTILSASVGDRVTITCRASQSISKWLAWYQQKPGKVPKLLIYMASTLESGVPSRFSGSGSGSEFTLTISSLQPGDFATYYCQQYNSYPRTFGQGTKVEINV
As for B6, the HI activity in assay [1] and in assay [2] was over 160 µg/mL in each case. The Neutralizing activity (%) at 100 µg/ml in assay [1] is 98%; in assay [3], 54.6%; in assay [4] it was -0.7%; in assay [5], -18.3%. In addition, the Neutralizing activity (%) at 250 µg/ml in assay [1] is 100%; in assay [3] it was 60.8%; in assay [4], 19.9%; in assay [5], 100%.

B7: Group 39 representative clone F082-237, Fab-PP-type antibody (Fab, V domains shown)
VH: QVQLVQSGAEVKKPGSSVKVSCKASGGIFNKYGISWVRQAPGQGLEWMGGILAIFGTTNYAQKFQGRVTISADESSTTVYMELSSLTSEDTAVYYCARGNTYYSSYFDQWGQGTLVTVSS
VL: QSVLTQPPSVSVAPGQTATITCGGDKIGTGPVHWYQQMPGRAPVLLIYASTHRPSRIPERFSGSKSDNTATLSISGVGVGDEADYYCQMWDSSSVHPIVFGGGTKLTVLS
In the case of B7, the HI activity in assay [1] and in assay [2] was over 160 µg/mL throughout. Also, the Neutralizing activity (%) at 100 µg/ml in assay [1] is 48.7%; in assay [3], 31.2%; in assay [4] it was -2.7%; in assay [5], 95.3%. The Neutralizing activity (%) at 250 µg/ml amounted to 64.5% in assay [1], 41.2% in assay [3], 15.8% in assay [4] and 100% in assay [5].

B8: Group 54 representative clone F083-354, Fab-PP-type antibody (Fab, V domains shown)
VH: QVQLVQSGSEVKKPGSSVKVSCKASGGIFNSYGISWVRQAPGQGLEWMGGILAIFGTTNYAQKFQGRVTITADDSSKTVYMELSSLTSEDTAVYYCARGSTYYSSYFDQWGQGTLVTVSS
VL: DIQMTQSPSSLSASVGDRVTITCRASQGIRNSLAWYQQKPGQVPKLLIYSATTLRSGVPYRFSGSGSGTDFTLTISGLQPEDVGTYFCHRYDSAPLTFGGGTRVALK
In the case of B8, the HI activity in assay [1] and in assay [2] was over 160 µg/mL in each case. Further, the Neutralizing activity (%) at 100 µg/ml in assay [1] is 96.1%; in assay [3], 66.4%; in assay [4] it was -0.7%; in assay [5] it was 100%. Besides, the Neutralizing activity (%) at 250 µg/ml is 100% in assay [1], 80.7% in assay [3], -11% in assay [4] and 94.2% in assay [5].

B9: Group 52 representative clone F083-328, Fab-PP-type antibody (Fab, V domains shown)
VH: QVQLVQSGAEVKKPGSSVKLSCKASGGTLRSYALSWVRQAPGEGLEWMGGISAIFNTATYAQNVQGRVTITADESTNTFYLEVSSLRSDDTAVYYCATSGTYYVSFFDYWGQGTLVTVSS
VL: DIVLTQSPSTLSASVGDRVTLTCRASQSIGSLMAWYQQQPGKPPKLLIYRASNLETGVPSRFTGSGSGTEFALTISSLQPDDVGTYYCQHFKTFSRTFGQGTKVEIK
Take B9: the HI activity in assay [1] and in assay [2] was over 160 µg/mL each time. For the same molecule, the Neutralizing activity (%) at 100 µg/ml in assay [1] was 100%; in assay [3], 86.9%; in assay [4], 9.6%; in assay [5], 100%. The Neutralizing activity (%) at 250 µg/ml in assay [1] is 100%; in assay [3], 93.2%; in assay [4], 5.5%; in assay [5], 100%.

B10: Group 47 representative clone F083-308, Fab-PP-type antibody (Fab, V domains shown)
VH: QVQLVQSGAEVKKPGSSVKVSCKASGGIFRSHAISWVRQAPGQGLEWMGGIIAIFGTTHYAQQFQGRVTITADESTSTVYMELSTLRSEDTAVYYCARGPNYFESYFDNWGQGTLVTVSS
VL: EIVLTQSPATLSLSPGERATLSCRASQTISSYLAWYQQKPGQAPRLLIYGASNRATGIPARFSGSGSGTDFTLTINSLEPEDFAVYYCQQRSSWPPITFGQGTRLEIK
For B10, the HI activity in assay [1] and in assay [2] was over 160 µg/mL each time. The Neutralizing activity (%) at 100 µg/ml in assay [1] was determined as 100%; in assay [3], 29.4%; in assay [4] it was 1.4%; in assay [5] it was 97.7%. Further, the Neutralizing activity (%) at 250 µg/ml in assay [1] is 100%; in assay [3] it was 49.4%; in assay [4], -6.8%; in assay [5], 100%.
